Read-outs that look alike come from different tables or passages of the source.

Consider 15 molecules from patent US20160369010A1 (AstraZeneca / MedImmune, published 2016).

In test [1] the target is recombinant human B7-H1 (in house) (human, UniProt Q9NZQ7 19-238, limits assumed). Briefly: binding ELISA on coated human B7-H1 (5 ug/mL), compound at 10 ug/mL, detection with cryptate labelled Fc specific anti human IgG.
Description: Binding ELISA was performed by coating human B7-H1 (in house) at 5 ug/mL in 1× Phosphate Buffered Saline. After plate blocking with 1×Phosphate Buffered Saline, 3% skimmed milk, compounds were added at 10 ug/mL in PBS and incubated for 2 h at room temperature before washing.
Test [2] addresses T1, Recombinant human Avi_PCSK9_Flag_His (human, UniProt Q8NBP7 31-692, biotinylated in the HTRF and LDL-R competition assays).
T1 construct: In-house protein; also called human PCSK9; huPCSK9
Description: HTRF epitope competition: unlabelled compound titrated against a DyLight 650-labelled anti-PCSK9 antibody for biotinylated human PCSK9; % specific binding [panel A].
Description: (§1) PCSK9 activity of each peptide-antibody fusions was assessed using Homogenous Time Resolved Fluorescence (HTRF) epitope competition assays.
(§2) For the assay all samples and reagents were prepared in assay buffer containing 1X Phosphate Buffered Saline, 0.1% BSA (Sigma A9576) and 0.4M Potassium Fluoride. Test samples of peptide-antibody fusions or control antibodies were prepared in 384 well polypropylene plates by 3-fold serial dilutions. […] Delta F% was then calculated using the following equation.

For test [3], the target named is T1, Recombinant human Avi_PCSK9_Flag_His. Description: binding ELISA: human PCSK9 coated at 10 ug/mL, compound at 100 ug/mL, detection with cryptate-labelled Fc-specific anti-human IgG; fluorescence counts.
Description: (§3) After plate blocking with 1× Phosphate Buffered Saline, 3% skimmed milk, compounds were added at 100 ug/mL in PBS and incubated for 2 h at room temperature before washing. Bound compounds were detected using cryptate labelled Fc specific anti human IgG (Perkin Elmer) diluted at 100 ng/mL in Delfia Buffer (Perkin Elmer).
Test [4] has the same target. Briefly: HTRF epitope competition: unlabelled compound titrated against a DyLight 650-labelled anti-PCSK9 antibody for biotinylated human PCSK9; % specific binding [panel F].
Description: as §1, §2
Test [5] has the same target. Briefly: HTRF epitope competition: unlabelled compound titrated against a DyLight 650-labelled anti-PCSK9 antibody for biotinylated human PCSK9; % specific binding [panel A]. This is another data set of the same source.
Description: as §1, §2
Test [6] shares this target. Description: HTRF epitope competition: unlabelled compound titrated against a DyLight 650-labelled anti-PCSK9 antibody for biotinylated human PCSK9; % specific binding [panel C].
Description: as §1, §2
For test [7] the target is unchanged. Briefly: binding ELISA on coated human PCSK9 (10 ug/mL), compound at 100 ug/mL, detection with cryptate labelled Fc specific anti human IgG.
Description: as §3
For test [8] the target is unchanged. Briefly: HTRF epitope competition: unlabelled compound titrated against a DyLight 650-labelled anti-PCSK9 antibody for biotinylated human PCSK9; % specific binding [panel E].
Description: as §1, §2
Test [9] shares this target. Description: HTRF epitope competition: unlabelled compound titrated against a DyLight 650-labelled anti-PCSK9 antibody for biotinylated human PCSK9; % specific binding [panel F]. This is another data set of the same source.
Description: as §1, §2
Test [10] has the same target. Description: HTRF epitope competition: unlabelled compound titrated against a DyLight 650-labelled anti-PCSK9 antibody for biotinylated human PCSK9; % specific binding.
Description: as §1, §2
For test [11] the target is unchanged.
The target is the same in test [12]. Description: HTRF epitope competition: unlabelled compound titrated against a DyLight 650-labelled anti-PCSK9 antibody for biotinylated human PCSK9; % specific binding [panel E]. The source holds these as a separate data set.
Description: as §1, §2

Sequence of recombinant human B7-H1 (in house) (Q9NZQ7 19-238 limits assumed): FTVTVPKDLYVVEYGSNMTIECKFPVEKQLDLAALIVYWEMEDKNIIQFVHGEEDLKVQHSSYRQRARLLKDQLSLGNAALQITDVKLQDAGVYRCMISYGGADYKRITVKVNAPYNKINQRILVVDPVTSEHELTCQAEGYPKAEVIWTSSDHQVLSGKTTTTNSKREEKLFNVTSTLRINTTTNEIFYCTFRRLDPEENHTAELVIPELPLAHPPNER

B1: Fusion 2.7A4 DSB7 V19A (antibody)
VH: EVQLVESGGGLVKPGGSLRLSCAASGFTFSTYSMNWVRQAPGKGLEWVSSISSSGDYIYYADSVKGRFTISRDNAKNSLYLQMNSLRAEDTAVYYCARDLVTSMVAFDYWGQGTLVTVSS
VL: HGEGTFTSDLSKQMEEECARLFIEWLKNGGPSSGAPPPGCGGGGGSGGGGSGGGGSASYELTQPPSVSVSPGQTARITCSGDALPQKYVFWYQQKSGQAPVLVIYEDSKRPSGIPERFSGSSSGTMATLTISGAQVEDEADYYCYSTDRSGNHRVFGGGTKLTVL
notes: Peptide-linker on the light chain of the anti-B7-H1 antibody
As for B1, the binding result in test [1] was “binds”.

B2: PC9#1 GLP-1 analogue light chain fusion (antibody, IgG1)
VH: QVQLVQSGAEVKKPGASVKVSCKASGYTFTSYYMHWVRQAPGQGLEWMGEISPFGGRTNYNEKFKSRVTMTRDTSTSTVYMELSSLRSEDTAVYYCARERPLYASDLWGQGTTVTVSS
VL: HGEGTFTSDVSSYLEEQAAKEFIAWLVKGGGGGGGSGGGGSGGGGSADIQMTQSPSSLSASVGDRVTITCRASQGISSALAWYQQKPGKAPKLLIYSASYRYTGVPSRFSGSGSGTDFTFTISSLQPEDIATYYCQQRYSLWRTFGQGTKLEIK
notes: IgG1-TM; peptide-linker at the N-terminus of VL; descriptive name; also called light chain peptide antibody fusion of PC9#1
As to B2, in test [2], the “IC50 (read off the curve)” value was approximately 0.1 nM.

B3: HS9_DSB7_V19A_L2 (antibody, IgG1)
VH: QVQLVQSGAEVKKPGASVKVSCKASGYTFTSYYMHWVRQAPGQGLEWMGEISPSGGSTSYNQKFQGRVTMTRDTSTSTVYMELSSLRSEDTAVYYCARERPLYASDLWGQGTTVTVSS
light: not shown
With B3, the binding result in test [3] is recorded as “binds”.

B4: HS9_DSB7_V19A_L1 (antibody, IgG1)
VH: QVQLVQSGAEVKKPGASVKVSCKASGYTFTSYYMHWVRQAPGQGLEWMGEISPSGGSTSYNQKFQGRVTMTRDTSTSTVYMELSSLRSEDTAVYYCARERPLYASDLWGQGTTVTVSS
light: not shown
notes: VH see m27; IgG1-TM
B4: the binding result in [3] is “binds”.

B5: HS9_DSB7_V19A_L0 (antibody, IgG1)
VH: QVQLVQSGAEVKKPGASVKVSCKASGYTFTSYYMHWVRQAPGQGLEWMGEISPSGGSTSYNQKFQGRVTMTRDTSTSTVYMELSSLRSEDTAVYYCARERPLYASDLWGQGTTVTVSS
light: not shown
notes: VH see m27; IgG1-TM
For the molecule B5, the binding result in test [3] is on record as “binds”.

B6: PC9#6 GLP-1 analogue heavy chain fusion (antibody, IgG1)
VH: HGEGTFTSDVSSYLEEQAAKEFIAWLVKGGGGGGGSGGGGSGGGGSAQVQLVQSGAEVKKPGSSVKVSCKASGGTFNSHAISWVRQAPGQGLEWMGGINPILGIANYAQKFQGRVTITADESTSTAYMELSSLRSEDTAVYYCARHYEIQIGRYGMNVYYLMYRFASWGQGTLVTVSS
VL: DIQMTQSPSSLSASVGDRVTITCRASQGIRSALNWYQQKPGKAPKLLIYNGSTLQSGVPSRFSGSGSGTDFTLTISSLQPEDFAVYYCQQFDGDPTFGQGTKVEIK
notes: IgG1-TM; descriptive name; also called heavy chain peptide antibody fusion of PC9#6
As to B6, the “IC50 (read off the curve)” value in test [4] is approximately 0.6 nM.

B7: PC9#1 GLP-1 analogue heavy chain fusion (antibody, IgG1)
VH: HGEGTFTSDVSSYLEEQAAKEFIAWLVKGGGGGGGSGGGGSGGGGSAQVQLVQSGAEVKKPGASVKVSCKASGYTFTSYYMHWVRQAPGQGLEWMGEISPFGGRTNYNEKFKSRVTMTRDTSTSTVYMELSSLRSEDTAVYYCARERPLYASDLWGQGTTVTVSS
VL: DIQMTQSPSSLSASVGDRVTITCRASQGISSALAWYQQKPGKAPKLLIYSASYRYTGVPSRFSGSGSGTDFTFTISSLQPEDIATYYCQQRYSLWRTFGQGTKLEIK
notes: IgG1-TM; peptide-linker at the N-terminus of VH; also called heavy chain peptide antibody fusion of PC9#1
Turning to B7, in [5], the “IC50 (read off the curve)” value is approximately 0.06 nM.

B8: PC9#3 GLP-1 analogue light chain fusion (antibody, IgG1)
VH: EVQLVESGGGLVQPGGSLRLSCAASGFTFNNYAMNWVRQAPGKGLDWVSTISGSGGTTNYADSVKGRFIISRDSSKHTLYLQMNSLRAEDTAVYYCAKDSNWGNFDLWGRGTLVTVSS
VL: HGEGTFTSDVSSYLEEQAAKEFIAWLVKGGGGGGGSGGGGSGGGGSADIVMTQSPDSLAVSLGERATINCKSSQSVLYRSNNRNFLGWYQQKPGQPPNLLIYWASTRESGVPDRFSGSGSGTDFTLTISSLQAEDVAVYYCQQYYTTPYTFGQGTKLEIK
notes: IgG1-TM; descriptive name; also called light chain peptide antibody fusion of PC9#3
Take B8: the “IC50 (read off the curve)” value in test [6] is approximately 0.4 nM.

B9: PC9#3_DSB7_V19A (antibody, IgG1)
VH: EVQLVESGGGLVQPGGSLRLSCAASGFTFNNYAMNWVRQAPGKGLDWVSTISGSGGTTNYADSVKGRFIISRDSSKHTLYLQMNSLRAEDTAVYYCAKDSNWGNFDLWGRGTLVTVSS
VL: HGEGTFTSDLSKQMEEECARLFIEWLKNGGPSSGAPPPGCGGGGGSGGGGSGGGGSADIVMTQSPDSLAVSLGERATINCKSSQSVLYRSNNRNFLGWYQQKPGQPPNLLIYWASTRESGVPDRFSGSGSGTDFTLTISSLQAEDVAVYYCQQYYTTPYTFGQGTKLEIK
notes: IgG1-TM
In the case of B9, the binding result in test [7] is “binds”.

B10: PC9#5 GLP-1 analogue heavy chain fusion (antibody, IgG1)
VH: HGEGTFTSDVSSYLEEQAAKEFIAWLVKGGGGGGGSGGGGSGGGGSAEMQLVESGGGLVQPGGSLRLSCAASGFTFSSHWMKWVRQAPGKGLEWVANINQDGSEKYYVDSVKGRFTISRDNAKNSLFLQMNSLRAEDTAVYYCARDIVLMVYDMDYYYYGMDVWGQGTTVTVSS
VL: not shown
notes: IgG1-TM; descriptive name; also called heavy chain peptide antibody fusion of PC9#5
Consider B10, for which the “IC50 (read off the curve)” value in test [8] is approximately 0.1 nM.

B11: PC9#6 GLP-1 analogue light chain fusion (antibody, IgG1)
VH: QVQLVQSGAEVKKPGSSVKVSCKASGGTFNSHAISWVRQAPGQGLEWMGGINPILGIANYAQKFQGRVTITADESTSTAYMELSSLRSEDTAVYYCARHYEIQIGRYGMNVYYLMYRFASWGQGTLVTVSS
VL: HGEGTFTSDVSSYLEEQAAKEFIAWLVKGGGGGGGSGGGGSGGGGSADIQMTQSPSSLSASVGDRVTITCRASQGIRSALNWYQQKPGKAPKLLIYNGSTLQSGVPSRFSGSGSGTDFTLTISSLQPEDFAVYYCQQFDGDPTFGQGTKVEIK
notes: IgG1-TM; descriptive name; also called light chain peptide antibody fusion of PC9#6
With B11, in test [9], the binding result is “binds”.

B12: PC9#7 GLP-1 analogue heavy chain fusion (antibody, IgG1)
VH: HGEGTFTSDVSSYLEEQAAKEFIAWLVKGGGGGGGSGGGGSGGGGSAQVQLVQSGAEVKKPGESLKISCKGSGYSFTNYWISWVRQMPGKGLEWMGIIYPGDSYTNYSPSFQGQVTISADKSISTAYLQWSSLKASDTAMYYCARDYWYKPLFDIWGQGTLVTVSS
VL: not shown
notes: IgG1-TM; descriptive name; also called heavy chain peptide antibody fusion of PC9#7
Regarding B12, in [10], the “IC50 (read off the curve)” value was approximately 0.1 nM.

B13: PC9#7 GLP-1 analogue light chain fusion (antibody)
VH: QVQLVQSGAEVKKPGESLKISCKGSGYSFTNYWISWVRQMPGKGLEWMGIIYPGDSYTNYSPSFQGQVTISADKSISTAYLQWSSLKASDTAMYYCARDYWYKPLFDIWGQGTLVTVSS
VL: HGEGTFTSDVSSYLEEQAAKEFIAWLVKGGGGGGGSGGGGSGGGGSADIVMTQSPDSLAVSLGERATINCRSSQSVLYSSNNKNYLAWYQQKPGQPPKLLIYWASTRESGVPDRFSGSGSGTDFTLTISSLQAEDVAVYYCQQYSSFPITFGQGTKVEIK
Consider B13, for which the “IC50 (read off the curve)” value in [11] was approximately 1 nM.

B14: PC9#5 GLP-1 analogue light chain fusion (antibody, IgG1, V domains shown)
VH: EMQLVESGGGLVQPGGSLRLSCAASGFTFSSHWMKWVRQAPGKGLEWVANINQDGSEKYYVDSVKGRFTISRDNAKNSLFLQMNSLRAEDTAVYYCARDIVLMVYDMDYYYYGMDVWGQGTTVTVSS
VL: not shown
notes: IgG1-TM; descriptive name; also called light chain peptide antibody fusion of PC9#5
For B14, the “IC50 (read off the curve)” value in [12] is approximately 6 nM.

B15: PC9#5_DSB7_V19A (antibody, IgG1, V domains shown)
VH: EMQLVESGGGLVQPGGSLRLSCAASGFTFSSHWMKWVRQAPGKGLEWVANINQDGSEKYYVDSVKGRFTISRDNAKNSLFLQMNSLRAEDTAVYYCARDIVLMVYDMDYYYYGMDVWGQGTTVTVSS
VL: not shown
notes: IgG1-TM
For the molecule B15, the binding result in test [7] is given as “binds”.
